# Assay results as given in patent US11419948B2, “Functionalized microgels with fibrin binding elements” (Georgia Tech Research Corporation, priority 2013, dated 2022).
# T1: fibrin clots (Homo sapiens, UniProt P02671+P02675+P02679)
# T1 sequence (P02671 36-866 limits assumed): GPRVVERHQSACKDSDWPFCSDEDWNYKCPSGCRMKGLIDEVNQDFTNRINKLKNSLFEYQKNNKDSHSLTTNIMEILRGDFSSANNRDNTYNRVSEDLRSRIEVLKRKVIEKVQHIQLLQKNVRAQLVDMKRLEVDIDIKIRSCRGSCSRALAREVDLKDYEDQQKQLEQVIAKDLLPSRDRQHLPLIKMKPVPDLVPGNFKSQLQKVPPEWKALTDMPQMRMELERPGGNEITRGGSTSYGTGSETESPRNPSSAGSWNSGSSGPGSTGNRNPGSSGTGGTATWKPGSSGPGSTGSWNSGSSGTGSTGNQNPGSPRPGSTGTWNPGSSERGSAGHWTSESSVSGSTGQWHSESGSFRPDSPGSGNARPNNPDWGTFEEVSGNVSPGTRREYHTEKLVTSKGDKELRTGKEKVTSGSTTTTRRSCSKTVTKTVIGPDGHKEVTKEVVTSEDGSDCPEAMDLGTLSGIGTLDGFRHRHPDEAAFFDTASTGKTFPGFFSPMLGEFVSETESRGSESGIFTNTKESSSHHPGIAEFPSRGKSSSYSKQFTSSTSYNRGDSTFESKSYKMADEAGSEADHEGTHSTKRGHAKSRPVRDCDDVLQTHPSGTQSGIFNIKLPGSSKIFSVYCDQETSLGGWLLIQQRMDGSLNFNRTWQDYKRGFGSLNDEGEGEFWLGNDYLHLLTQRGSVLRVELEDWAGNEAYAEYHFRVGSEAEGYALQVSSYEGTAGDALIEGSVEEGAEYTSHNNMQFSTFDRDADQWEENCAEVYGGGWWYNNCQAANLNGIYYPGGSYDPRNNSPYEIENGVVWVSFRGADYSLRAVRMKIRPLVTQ
# T1 sequence (P02675 45-491 limits assumed): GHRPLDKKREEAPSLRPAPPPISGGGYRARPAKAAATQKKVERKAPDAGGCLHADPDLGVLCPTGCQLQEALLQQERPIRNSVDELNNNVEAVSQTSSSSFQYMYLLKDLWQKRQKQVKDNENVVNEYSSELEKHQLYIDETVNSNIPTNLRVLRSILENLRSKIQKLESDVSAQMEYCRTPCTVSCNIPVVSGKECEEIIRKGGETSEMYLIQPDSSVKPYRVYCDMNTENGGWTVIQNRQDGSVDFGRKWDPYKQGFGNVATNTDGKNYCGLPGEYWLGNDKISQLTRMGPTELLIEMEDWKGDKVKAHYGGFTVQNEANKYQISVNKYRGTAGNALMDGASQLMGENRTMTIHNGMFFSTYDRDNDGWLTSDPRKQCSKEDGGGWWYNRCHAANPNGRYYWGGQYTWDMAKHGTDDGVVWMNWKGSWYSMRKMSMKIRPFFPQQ
# T1 sequence (P02679 27-453): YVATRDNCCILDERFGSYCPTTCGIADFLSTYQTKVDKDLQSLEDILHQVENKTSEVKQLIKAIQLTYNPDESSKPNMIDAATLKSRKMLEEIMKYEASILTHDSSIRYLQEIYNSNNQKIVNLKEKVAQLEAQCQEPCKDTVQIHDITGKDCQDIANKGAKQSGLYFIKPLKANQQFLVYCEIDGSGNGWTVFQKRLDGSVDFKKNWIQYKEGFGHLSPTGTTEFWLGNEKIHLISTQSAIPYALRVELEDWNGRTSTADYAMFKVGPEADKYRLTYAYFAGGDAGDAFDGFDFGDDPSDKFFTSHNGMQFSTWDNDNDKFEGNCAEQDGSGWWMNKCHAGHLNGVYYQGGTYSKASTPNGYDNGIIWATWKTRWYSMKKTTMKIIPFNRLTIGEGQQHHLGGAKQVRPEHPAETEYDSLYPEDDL
# Biological target: T1, fibrin clots
# Assay: Clot microstructure by confocal microscopy
# Assay type: biochemical
# Parameters: from tissue; host or cells: blood plasma (platelet-rich or platelet-poor)
# Details: clots formed in presence of particles, compared to control (fibrin-only) clots
# Source text: FIGS. 4A and 4B are maximum-intensity confocal images of fibrin clots formed from platelet-rich plasma (PRP) or platelet-poor plasma (PPP) in the absence or presence of PLPs or S11-ULCs. Fibrin, grey; microgels/platelets, circled.
# To allow appreciation of the network structure in the presence of saturation, 0.33× exposures and equivalent exposures are shown on the left- and right-hand sides, respectively, of the images for PRP and PLP clots. […] FIG. 4E is a graph showing the calculated spread area of PLPs, natural platelets, S11-ULCs and H6-PS particles within fibrin matrices. (**p<0.01, ***p<0.001).
# To further characterize the nature of PLP-fibrin interactions, clot microstructure was analyzed via confocal microscopy by forming clots in the presence or absence of scFv-ULC microgels. […] These clots were highly heterogeneous, containing regions of dense fibrin observed in conjugation with PLPs (FIG. 4A) with the dense features becoming more pronounced over time. These features were very similar to those observed from clots formed in platelet-rich plasma, although occurring on a different time scale.
molecule,measurement,value
PLPs: ultra-low crosslinked pNIPAm-AAc microgels conjugated to fibrin-specific sdFv H6 (conjugate) VH: QVQLLESGGGLVQPGGSLRLSCAASGDRFTHNDMGWVRQAPGKGLEWVSTIPTTDGSTYYADSVKGRFTISRDNSKSTLYLQMNSLRAEDTAVYYCATGYMWKAPAYVKYWGQGTLVTVSSAAAEQKLISEEDLNSAAHYTDIG,clot structure,significantly altered clot structure
